Experimental findings from patent publication US8507433B1, “Cardioprotective effects of GHRH agonists” (University of Miami, priority 2010, dated 2013) are described below.

Broadly, the Kd is the equilibrium constant for the complex coming apart.

Values joined by “and” are separate entries in the source; they are usually repeats but may differ in a detail not shown here. Identical values can stand only once. Marks after values point to notes of the source that are not given here.

One experiment relates to serum GH. The experiment in a line: Rat serum GH (ELISA) after 4-week treatment. The following applies: rats post-MI, blood 1-2 hours after last injection, vs. placebo. The class given is in vivo. As for the experimental part:
(§1) MI induced by coronary artery ligation was performed in female 6-month-old Fisher-344 rats as described previously (40). Animals were randomly assigned to receive placebo, GHRH-agonist (GHRH-A [JI-38], 50 μg/kg) or rat recombinant GH (rrGH, 0.5 mg/kg) starting 2 hours post-surgery. All treatment was given subcutaneously twice daily for 4 weeks. The Institutional Animal Care and Use committee of University of Miami approved all protocols and experimental procedures.
(§2) At the end of the study, blood was drawn 1-2 hours after the last rrGH or GHRH-A injection and the serum was stored at −80° C. until the measurements were done. All the samples were assayed together and each sample was assayed in duplicate. Rat serum GH was measured using a rat GH Enzyme-Linked Immunosorbent Assay (ELISA) Kit (DSL-10-72100, DSL Webster, Tex.), following the manufacturer's recommendations. This test is an enzymatically amplified “one-step” sandwich-type enzyme immunoassay, where standards, controls and unknown samples are incubated in microtitration wells precoated with the anti-rat GH antibody. The standard curve of the assay was established with samples provided by the manufacturer. Rat serum IGF-I was measured using a rat IGF-I Radioimmunoassay Kit (DSL-2900, DSL Webster, Tex.), after extraction with acid ethanol, following the manufacturer's recommendations. […]
On the technique in general: ELISA stands for enzyme-linked immunosorbent assay.

For another experiment, the system named is GHRH-R mRNA. The experiment in a line: Real-time PCR of mRNA for GHRH-R and β-actin in rat heart tissue. The class given is in vivo. The following applies: normalised to β-actin, Pfaffl method. How it is done: (§3) Total RNA from heart tissue was extracted using Trizol (Invitrogen, Carlsbad, Calif.). The quality of RNA isolated was tested using NanoDrop1000 (Thermo Fisher Scientific Inc., Wilmington, Del.). OD 260/280 ratio was in the range of 1.8 to 2.1 for all samples.
The expression of GHRHR was measured using real-time quantitative PCR as described previously by Havt et al (6).
We evaluated the mRNA expression of rat GHRH receptor (GHRH-R) and β-actin. The probes designed to evaluate the expression of GHRH-R and β-actin are 5′-/Cy5/ACCTCCGACTTTCTCAGTTCCTGTATGCCC/BHQ—2/-3′ and 5′-/6-FAM/ATCCTGCGTCTGGACCTGGCTGGC/BHQ—1/-3′, respectively. Gene specific primer sequences were the following: GHRH-R (sense) 5′-[…]-3′ and 5′-TGGTTTCCCTGGGCCTTGG-3′ (antisense) with a product size of 110 bp, β-actin: (sense) 5′-GGGTTACGCGCTCCCTCAT-3′ and 5′-[…]-3′ (antisense) with a product size of 133 bp.
All real-time PCR reactions were performed in the iCycler iQ™ Real-Time PCR Detection System (Bio-Rad, Hercules, Calif.). Thermal cycling conditions comprised an initial denaturation step at 95° C. for 3 min followed by 45 cycles at 95° C. for 30 sec and an annealing temperature at 60° C. for GHRH-R and β-actin for 1 min. As final steps, we included two cycles: one at 95° C. and the other at 60° C., both for 1 min. […]

Experiment [1] deals with female 6-month-old Fisher-344 rats, MI induced by coronary artery ligation. The experiment in a line: Hemodynamic measurements (LV pressure-volume catheterization) post-MI. It is filed as in vivo, rat. Also noted: SW (stroke work) / Ees (end-systolic elastance): unit not given here. The following applies: rats post-MI after 4-week treatment; for Heart rate: LV catheterization; for LVEDP / LVEDV: preload. How it is done: as §1
Rats were anesthetized by intramuscular injection of a mixture of ketamine (100 mg/kg), xylazine (20 mg/kg) and acepromazine (10 mg/kg). A 2-F micromanometer tipped catheter (SPR-838, Millar Instruments, Houston, Tex.) was inserted into the right carotid artery and advanced retrograde into the left ventricle. Measurements were calibrated by injecting a hypertonic saline (15%) bolus to determine extra-ventricular conductance; relative volume units were converted to actual volume using the cuvette calibration method (2). All analyses were performed using PVAN 3.0 software (Millar Instruments, Houston, Tex.).

The test system of a further experiment is serum IGF-I. The experiment in a line: Rat serum IGF-I (radioimmunoassay) after 4-week treatment. It is filed as in vivo. The following applies: rats post-MI, blood 1-2 hours after last injection, vs. placebo. As for the experimental part:
as §1, §2

The test system of experiment [2] is female 6-month-old Fisher-344 rats, MI induced by coronary artery ligation. Nature of the experiment: Echocardiographic measurements post-MI. The class given is in vivo, rat. The following applies: echocardiography. As for the experimental part:
as §1
Echocardiographic measurements were obtained at baseline, 2 days, 1, 2 and 4 weeks. Echocardiographic assessments were performed in anesthetized rats (2% isoflurane inhalation) using a Vevo-770 echocardiogram (Visual Sonics Inc., Toronto, Ontario, Canada) equipped with a 17.5-MHz transducer. Cardiac dimensions: LV end diastolic (LVEDD), end systolic (LVESD) diameters and fractional shortening (FS) were recorded from M-mode images using averaged measurements from 3 to 5 consecutive cardiac cycles according to the American Society of Echocardiography (1). Ejection fraction (EF) was calculated from bi-dimensional long-axis parasternal views taken through the infarcted area. All images were analyzed using Vevo 770 3.0.0 software (Visual Sonics Inc., Toronto, Ontario, Canada).

The test system is the same in experiment [3]. The experiment in a line: Histopathology: MI size, fibrosis, capillary density, myocyte width. The class given is in vivo, rat. The following applies: rats post-MI after 4-week treatment. How it is done:
as §1
(§4) At the end of the study, rat hearts were harvested for further analysis. Hearts were weighted and the basal portion, free of fibrotic tissue, was flash-frozen in liquid nitrogen for total RNA isolation and protein analysis. Remaining tissue was fixed with 10% formalin for histology.
Slides were prepared with H&E and Masson's trichrome stain to assess cardiac structure and the presence and extent of fibrosis and myocardial scar, respectively. The size of MI was determined using NIH Image version 1.30v for Windows to quantify the percentage area of fibrosis. An image-processing software (Imaging Processing Toolkit 5.0, Reindeer Graphics, Asheville, N.C.) and Adobe Photoshop CS2 (San Jose, Calif.) were used to assess the slides as previously described with minor modifications (3). The percentage of fibrosis was calculated by using the following formula: % fibrosis=fibrotic area/(fibrotic area+healthy area)
H&E stained sections of hearts from midventricular level were used to measure the myocyte width. At least 35-50 cardiomyocytes were counted and averaged at the level of the nuclei in non-infarcted remote myocardium.

Experiment [4] has the same test system. Nature of the experiment: Body weight and heart weight after MI, 4-week treatment. The following applies: mean±SEM; for Heart weight (HW) / body weight (BW) after MI: rats post-MI; for Heart weight (HW): after 4-week treatment; for body weight (BW) after MI: week 4, s.c. twice daily 4 weeks, GHRH-A 50 μg/kg or rrGH 0.5 mg/kg; for body weight (BW), baseline: rats, baseline before MI and treatment. The class given is in vivo, rat. As for the experimental part:
as §1, §4

In experiment [5] the test system is Bcl2 and Bax gene expression. The experiment in a line: Real-time PCR of pro-apoptotic and anti-apoptotic genes (Bax, Bcl2) in rat heart. The class given is in vivo. As to conditions: rt-qPCR. As for the experimental part:
as §3
The monitoring of pro-apoptotic and anti-apoptotic genes was also assessed by real time PCR. First-strand cDNA was synthesized from 1 μg total RNA using the High-Capacity cDNA Reverse-Transcription Kit (Applied Biosystems, Inc., Foster City, Calif., USA), and ribosomal 18S RNA served as the housekeeping gene. We used TaqMan probes labeled with 6-carboxyfluorescein (FAM) for real-time RT-PCR reactions, according to manufacturer's protocol (Applied Biosystems, Inc., Foster City, Calif., USA). Data were analyzed by the threshold cycle (Ct) relative quantification method.

The target in experiment [6] is rat GHRH receptor (GHRHR) in membrane fractions from ischemic rat heart (rat) (UniProt Q02644). The experiment in a line: radioligand binding: in vitro ligand competition assay with radioiodinated JV-1-42 on ischemic rat heart membrane fractions.
Experiment [7] has as its system Ki67 positive cells and c-kit+ cardiac precursor cells in rat heart. The experiment in a line: Immunostaining for Ki67 and c-kit positive cells in heart sections. As to conditions: remote zone, relative to placebo and GHRH-A. It is filed as in vivo. How it is done: as §1
Paraffin sections were deparaffinized and rehydrated by immersion in xylene and a graded series of ethanols. Antigen retrieval was performed by a heat-induced method with citrate buffer (Dako, Carpinteria, Calif.). After blocking with 10% normal donkey serum, sections were incubated with a primary antibody (table S3), at 37° C. for 1 hour, followed by application of secondary antibody. Omission of the primary antibodies on parallel sections was used as negative control. Nuclei were counterstained with DAPI (Invitrogen, Carlsbad, Calif.). The total numbers of positively-stained cells were quantified per slide to calculate the number of cells per unit volume (mm^3) on each sample. Morphometric analysis was performed by using Adobe Photoshop CS3 (San Jose, Calif.)

Chain of UniProt Q02644 (Q02644 23-464): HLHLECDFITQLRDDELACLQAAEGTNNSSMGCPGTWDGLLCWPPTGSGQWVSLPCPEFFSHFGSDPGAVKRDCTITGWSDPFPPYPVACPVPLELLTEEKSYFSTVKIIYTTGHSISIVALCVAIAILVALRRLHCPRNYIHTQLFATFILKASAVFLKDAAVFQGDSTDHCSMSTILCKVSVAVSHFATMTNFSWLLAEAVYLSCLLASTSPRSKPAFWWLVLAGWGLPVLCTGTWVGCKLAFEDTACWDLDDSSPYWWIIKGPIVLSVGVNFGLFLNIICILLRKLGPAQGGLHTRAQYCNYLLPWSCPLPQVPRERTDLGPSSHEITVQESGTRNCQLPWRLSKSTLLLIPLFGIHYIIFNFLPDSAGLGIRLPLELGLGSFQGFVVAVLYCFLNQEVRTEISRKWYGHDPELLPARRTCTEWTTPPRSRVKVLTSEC

Consider “[Dat^1, Gln^8, Orn^12,21, Abu^15, Nle^27, Asp^28, Agm^29]hGH-RH(1-29)NH2 [GHRH-A]”, for which the “serum GH” value in the experiment on serum GH is on record as “did not increase”. The “Ratio (GHRH-R gene expression level in treatment group compared to placebo group)” value in the experiment with GHRH-R mRNA is 1.91. Further, in [1], the Heart rate was found to be 270 ± 17 bpm, the LVEDP is listed as 8 ± 0.5 mmHg and the LVEDV was 421 ± 26 µL. Moreover, in experiment [1] (afterload), the “Ea (arterial elastance)” value was found to be 0.5 ± 0.004 mmHg/μl and the LVESP came out at 83 ± 1.1 mmHg. For the same molecule, the “Ees (end-systolic elastance)” value in experiment [1] (contractility) was determined as 0.19 ± 0.02. In addition, the “serum IGF-I” value in the experiment with serum IGF-I was “did not increase”. Moreover, in experiment [2] (4 weeks (W4) post-MI), the EF was 47±4% and 47.2 ± 4.0 ¶ %; the FS was found to be 28.7±3.3%; the LVEDD is given as 7.7 ± 0.2 mm. In [2] (baseline (BSL)), the EF was 85.7 ± 1.6%, the FS amounted to 53.1 ± 1.0%, the LVEDD was found to be 6.3 ± 0.2 mm and the LVESD was determined as 2.9 ± 0.1 mm. For the same molecule, the capillary density in experiment [3] was 0.006±0.001 /mm^2. In [4], the “Heart weight (HW)” value came out at 695 ± 26 mg; the “body weight (BW) after MI” value was 225 ± 3 g; the “body weight (BW), baseline” value was 231 ± 5 g. Further, in [5], the “expression of anti-apoptotic gene (Bcl2)” value was “upregulated” and the “expression of pro-apoptotic gene (Bax)” value is reported as “trended to be downregulated”. In addition, the “ratio between Bax and Bcl2 expression” value in experiment [5] (in comparison to placebo or rrGH) was “significantly reduced”.

In experiment [6], “GHRH antagonist JV-1-42 (radioiodinated derivative) (peptide)” registered a Bmax (fmol/mg protein) of 51.3 and a Kd of 0.86 nM.

B1: rrGH: Rat recombinant GH supplied by National Hormone and Pituitary Program (NHPP) (protein, UniProt P01244 27-216, looked up)
Somatotropin: FPAMPLSSLFANAVLRAQHLHQLAADTYKEFERAYIPEGQRYSIQNAQAAFCFSETIPAPTGKEEAQQRTDMELLRFSLLLIQSWLGPVQFLSRIFTNSLMFGTSDRVYEKLKDLEEGIQALMQELEDGSPRIGQILKQTYDKFDANMRSDDALLKNYGLLSCFKKDLHKAETYLRVMKCRRFAESSCAF
B1: in the experiment on serum GH, the “serum GH” value worked out at 679 ± 196 ng/mL. Also, the “Ratio (GHRH-R gene expression level in treatment group compared to placebo group)” value in the experiment with GHRH-R mRNA is reported as 2.10 *. In experiment [1], this molecule had a Heart rate of 247 ± 6.8 bpm, an LVEDP of 10 ± 1.8 mmHg and an LVEDV of 351 ± 38 µL. In experiment [1] (afterload), this molecule gave an LVESP of 91 ± 2.3 mmHg. In [1] (contractility), the “Ees (end-systolic elastance)” value is 0.33 ± 0.12, the PRSW was 48 ± 5.0 mmHg, the dP/dtmax turned out to be 6243 ± 313 mmHg/s and the dP/dtmax_EDV turned out to be 17.5 ± 4.3 mmHg/s/l. Further, the dP/dtmin in experiment [1] (lusitropy) turned out to be 4028 ± 334 mmHg/s. In experiment [1] (pressure-volume derived), the “CO (cardiac output)” value is 22.5 ± 3.4 mL/min, the EF is reported as 26.2 ± 1.7%, the “SV (stroke volume)” value was found to be 98 ± 13 µL and the “SW (stroke work)” value is listed as 6920 ± 790. Besides, in experiment [1] (ratio between arterial elastance and end-systolic elastance), the Ea/Ees came to 4.4 ± 0.6. In addition, the “TAU (G)” value in experiment [1] (relaxation time constant, Glantz method) came out at 19.9 ± 0.4 ms. Besides, the “expression of Ki67 positive cells” value in experiment [7] was “higher”. Moreover, the “serum IGF-I” value with serum IGF-I came to 1052 ± 91 ng/mL. Besides, in [2] (4 weeks (W4) post-MI), the EF is 44±2% and 44.3 ± 2.3%; the FS turned out to be 20.3±1.3%; the LVEDD is on record as 8.6 ± 0.1 mm; the LVESD amounted to 6.8 ± 0.2 mm. In experiment [2] (baseline (BSL)), this molecule showed an EF of 89.2 ± 0.4%, an FS of 58.2 ± 0.7%, an LVEDD of 5.9 ± 0.1 mm and an LVESD of 2.3 ± 0.1 mm. For the same molecule, the “MI size (infarct size)” value in experiment [3] (Masson's trichrome) came to 45±2%. Also, in [3], the capillary density was 0.02±0.002 /mm^2 and the “percentage of ventricular fibrosis” value came to 27±1%. In experiment [4], the “Heart weight (HW)” value came to 850 ± 38 mg; the “body weight (BW) after MI” value turned out to be 256 ± 3 g; the “body weight (BW), baseline” value was found to be 217 ± 4 g.
